Common to all, as to assay: SPR, antibody captured on Protein A
Background: Surface plasmon resonance follows binding to a sensor surface in real time, without labels.

The target in assay [1] is T1, human Fcγ receptor hFcgRIa (human, UniProt P12314 16-292, limits assumed).
T1 construct: Construct used in the SPR assay is not described; also called hFcγRIa; FcγI
Here is the method: (§1) The CH2 domain, which was modified in this examination, is known to be involved in interaction with several human Fcγ receptors (hereinafter denoted as hFcgRs) which affect effector functions. Therefore, the binding of TS1 and TS19 prepared by using the H chain of anti-IL6R produced in Example 2 to hFcgRs was measured, according to the method described in Reference Example 3.
(§2) Interactions between antibodies and hFcgRs (hFcgRIa, hFcgRIIa(R), hFcgRIIa(H), hFcgRIIb, hFcgRIIIa(F), and hFcgRIIIa(V)) were analyzed using Biacore T100 (GE Healthcare). HBS-EP+(GE Healthcare) was used for the running buffer, and the measurement temperature was set at 25° C. Protein A (Invitrogen) was immobilized by the amino coupling method, and an antibody of interest was captured thereon. Then, hFcγR solutions diluted using the running buffer were injected to allow interaction with the captured antibody at a flow rate of 30 μL/min for five minutes for hFcγRIa, and at a flow rate of 5 μL/min for one minute for the other hFcγRs. […] Since the hFcγR binding level depends on the amount of captured antibodies, the FcgR-binding levels were corrected so that the capture level of each antibody would be 200 RU (resonance unit) for hFcgRIa and 1000 RU (resonance unit) for the other hFcgRs. The captured antibodies were washed by allowing 10 mM glycine-HCl (pH 1.5) to react for 30 seconds at a flow rate of 30 μL/min to recycle the chip for reuse.

Assay [2] addresses T2, human Fcγ receptor hFcgRIIa (R) (human, UniProt P12318 36-217).
T2 construct: also called FcγRIIa (type R); FcγIIA
T2 chain: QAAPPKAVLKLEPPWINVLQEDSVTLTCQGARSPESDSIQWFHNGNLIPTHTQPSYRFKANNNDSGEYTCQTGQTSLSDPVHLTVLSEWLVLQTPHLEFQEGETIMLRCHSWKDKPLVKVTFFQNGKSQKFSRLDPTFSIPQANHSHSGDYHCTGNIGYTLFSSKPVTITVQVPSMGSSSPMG
Here is the method: as §1, §2

For assay [3], the target named is T3, human Fcγ receptor hFcgRIIa (H) (human, UniProt P12318 36-217).
T3 construct: also called FcγRIIa (type H); FcγIIA
T3 sequence: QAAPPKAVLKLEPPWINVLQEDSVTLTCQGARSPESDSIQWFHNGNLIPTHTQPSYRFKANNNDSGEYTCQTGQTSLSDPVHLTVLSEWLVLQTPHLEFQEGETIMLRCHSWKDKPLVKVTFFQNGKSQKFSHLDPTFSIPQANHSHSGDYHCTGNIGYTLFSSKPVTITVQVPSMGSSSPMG
The procedure:
as §1, §2

Assay [4] addresses T4, human Fcγ receptor hFcgRIIb (human, UniProt P31994 43-217, limits assumed).
T4 construct: Construct used in the SPR assay is not described; also called FcγRIIb; FcγIIB
T4 sequence: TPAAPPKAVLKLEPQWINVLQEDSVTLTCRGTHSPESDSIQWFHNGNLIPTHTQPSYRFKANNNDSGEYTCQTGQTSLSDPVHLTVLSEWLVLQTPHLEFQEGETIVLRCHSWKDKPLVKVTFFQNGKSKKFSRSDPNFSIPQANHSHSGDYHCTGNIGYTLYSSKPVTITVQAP
Here is the method:
as §1, §2

For assay [5], the target named is T5, human Fcγ receptor hFcgRIIIa (V) (human, UniProt P08637 17-208).
T5 construct: also called FcγRIIIa allotype V158; FcγIIIA
T5 sequence (P08637 other isoform, or with tags, fused parts or gaps limits assumed): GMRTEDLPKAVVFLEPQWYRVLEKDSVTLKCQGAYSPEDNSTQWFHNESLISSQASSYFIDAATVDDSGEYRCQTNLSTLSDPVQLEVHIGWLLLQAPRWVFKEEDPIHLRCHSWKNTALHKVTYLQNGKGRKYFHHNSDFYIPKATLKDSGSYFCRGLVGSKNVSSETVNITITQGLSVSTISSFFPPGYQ
The procedure: as §1, §2

T1 sequence (P12314 16-292 limits assumed): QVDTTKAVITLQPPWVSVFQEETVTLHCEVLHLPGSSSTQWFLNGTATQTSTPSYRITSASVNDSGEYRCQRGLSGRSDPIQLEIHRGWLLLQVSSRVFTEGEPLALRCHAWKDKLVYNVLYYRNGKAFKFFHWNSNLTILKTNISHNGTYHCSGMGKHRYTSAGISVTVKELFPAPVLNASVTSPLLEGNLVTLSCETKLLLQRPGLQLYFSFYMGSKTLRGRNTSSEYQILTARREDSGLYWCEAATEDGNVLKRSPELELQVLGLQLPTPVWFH

B1: TS13 (antibody)
heavy: QVQLQESGPGLVRPSQTLSLTCTVSGYSITSDHAWSWVRQPPGRGLEWIGYISYSGITTYNPSLKSRVTMLRDTSKNQFSLRLSSVTAADTAVYYCARSLARTTAMDYWGQGSLVTVSSASTKGPSVFPLAPSSKSTSGGTAALGCLVKDYFPEPVTVSWNSGALTSGVHTFPAVLQSSGLYSLSSVVTVPSSSLGTQTYICNVNHKPSNTKVDKKVEPKSCDKTHTCPPCPAPELLGGPSVFLFPPKPKDTLMISRTPEVTCVVVDVPMEFPEVKFNWYVDGVEVHNAKTKPREEQYNSTYRVVSVLTVLHQDWLNGKEYKCKVSNKALPAPIEKTISKAKGQPREPQVYTLPPSRDELTKNQVSLTCLVKGFYPSDIAVEWESNGQPENNYKTTPPVLDSDGSFFLYSKLTVDKSRWQQGNVFSCSVMHEALHNHYTQKSLSLSP
light: not shown
notes: anti-IL6R IgG1, G1d with S267P/H268M/D270F (EU)
On to B1, for which the “binding relative to G1 (=100)” value amounted to 63 in assay [1]; 1.2 in assay [2]; 1.2 in assay [3]; 3.4 in assay [4]; 1.4 in assay [5].

B2: TS16 (antibody)
heavy: QVQLQESGPGLVRPSQTLSLTCTVSGYSITSDHAWSWVRQPPGRGLEWIGYISYSGITTYNPSLKSRVTMLRDTSKNQFSLRLSSVTAADTAVYYCARSLARTTAMDYWGQGSLVTVSSASTKGPSVFPLAPSSKSTSGGTAALGCLVKDYFPEPVTVSWNSGALTSGVHTFPAVLQSSGLYSLSSVVTVPSSSLGTQTYICNVNHKPSNTKVDKKVEPKSCDKTHTCPPCPAPELLGGPSVFLFPPKPKDTLMISRTPEVTCVVVDVSHEDPEVKFNWYVDGVEVHNAKTKPREEMGNGTYRVVSVLTVLHQDWLNGKEYKCKVSNKALPAPIEKTISKAKGQPREPQVYTLPPSRDELTKNQVSLTCLVKGFYPSDIAVEWESNGQPENNYKTTPPVLDSDGSFFLYSKLTVDKSRWQQGNVFSCSVMHEALHNHYTQKSLSLSP
light: not shown
notes: anti-IL6R IgG1, G1d with Q295M/Y296G/S298G (EU)
Turning to B2, the “binding relative to G1 (=100)” value in assay [1] is 96.8; in assay [2] it was 25.3; in assay [3], 15.9; in assay [4] it was 21.7; in assay [5] it was 28.9.

These data come from US20200181257A1 (Chugai, published 2020).
